# B1: TRIM55 (parent)
# chain: FQMEKIEHGYENMNHFTVNLNREE
# Variants of: B1
# Assay: protein stability index of a GFP-peptide fusion (GPS, HEK-293T) (PSI 1-6); higher = more stable
# Conditions: c terminus: a fixed tail appended
# 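Also: lentivirally expressed fusions sorted by FACS into six bins by GFP to DsRed ratio, PSI derived from sequencing read proportions per bin multiplied by bin number.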
row,Variant,protein stability index
1,FQMEKIEQGYENMNHFTVNLNREE [H8Q],2.89
2,FQMEKIEYGYENMNHFTVNLNREE [H8Y],3.03
3,FQMEKIEIGYENMNHFTVNLNREE [H8I],2.21
4,FQMEKVEHGYENMNHFTVNLNREE [I6V],3
5,FQMEKWEHGYENMNHFTVNLNREE [I6W],2.06
6,FQMEKQEHGYENMNHFTVNLNREE [I6Q],3.32
7,FQMEKHEHGYENMNHFTVNLNREE [I6H],3.24
8,FQMEKEEHGYENMNHFTVNLNREE [I6E],4.13
9,FQMEKCEHGYENMNHFTVNLNREE [I6C],2.64
10,FQMEKLEHGYENMNHFTVNLNREE [I6L],3.44
11,FQMEKPEHGYENMNHFTVNLNREE [I6P],3.32
12,FQMEKFEHGYENMNHFTVNLNREE [I6F],2.15
13,FQMEKGEHGYENMNHFTVNLNREE [I6G],2.66
14,SQMEKIEHGYENMNHFTVNLNREE [F1S],4.48
15,QQMEKIEHGYENMNHFTVNLNREE [F1Q],4.85
16,EQMEKIEHGYENMNHFTVNLNREE [F1E],5.1
17,AQMEKIEHGYENMNHFTVNLNREE [F1A],4.71
18,IQMEKIEHGYENMNHFTVNLNREE [F1I],4.23
19,FQMEKIEHGYENMIHFTVNLNREE [N14I],1.98
20,FQMEKIEHGYENMCHFTVNLNREE [N14C],2.29
21,FQMEKIEHGYENMEHFTVNLNREE [N14E],4.16
22,FQMEKIEHGYENMTHFTVNLNREE [N14T],2.69
23,FQMEKIEHGYENMVHFTVNLNREE [N14V],2.15
24,FQMEKIEHGYENMKHFTVNLNREE [N14K],2.99

row,Variant,protein stability index
1,FQMEKIEHGYENMMHFTVNLNREE [N14M],2.29
2,FQMEKIEHGYENMHHFTVNLNREE [N14H],1.69
3,FLMEKIEHGYENMNHFTVNLNREE [Q2L],2.96
4,FSMEKIEHGYENMNHFTVNLNREE [Q2S],3.98
5,FKMEKIEHGYENMNHFTVNLNREE [Q2K],3.49
6,FIMEKIEHGYENMNHFTVNLNREE [Q2I],2.06
7,FQMEKIEHGYEMMNHFTVNLNREE [N12M],1.99
8,FQMEKIEHGYEIMNHFTVNLNREE [N12I],1.94
9,FQMEKIEHGYEWMNHFTVNLNREE [N12W],1.83
10,FQMEKIEHGYEYMNHFTVNLNREE [N12Y],1.84
11,FQMEKIEHGYECMNHFTVNLNREE [N12C],2.06
12,FQMEKIEHGYERMNHFTVNLNREE [N12R],2.34
13,FQMQKIEHGYENMNHFTVNLNREE [E4Q],2.42
14,FQMCKIEHGYENMNHFTVNLNREE [E4C],2.16
15,FQMPKIEHGYENMNHFTVNLNREE [E4P],2.58
16,FQMKKIEHGYENMNHFTVNLNREE [E4K],2.37
17,FQMSKIEHGYENMNHFTVNLNREE [E4S],1.9
18,FQMAKIEHGYENMNHFTVNLNREE [E4A],2.5
19,FQMEKIEHGYENMNTFTVNLNREE [H15T],2.76
20,FQMEKIEHGYENMNYFTVNLNREE [H15Y],1.82
21,FQMEKIEHGYENMNVFTVNLNREE [H15V],1.76
22,FQMEKIEHGYENMNDFTVNLNREE [H15D],3.97
23,FQMEKIEHGYENMNIFTVNLNREE [H15I],1.99
24,FQMEKIEHGYENMNAFTVNLNREE [H15A],2.1

row,Variant,protein stability index
1,FQMEKIEHGYENMNKFTVNLNREE [H15K],3.15
2,FQMEQIEHGYENMNHFTVNLNREE [K5Q],3.51
3,FQMECIEHGYENMNHFTVNLNREE [K5C],3.14
4,FQMETIEHGYENMNHFTVNLNREE [K5T],3.08
5,FQMEWIEHGYENMNHFTVNLNREE [K5W],2.41
6,FQMEHIEHGYENMNHFTVNLNREE [K5H],2.61
7,FQMEMIEHGYENMNHFTVNLNREE [K5M],2.83
8,FQMEKIEHEYENMNHFTVNLNREE [G9E],3.38
9,FQMEKIEHAYENMNHFTVNLNREE [G9A],3.63
10,FQMEKIEHVYENMNHFTVNLNREE [G9V],3.03
11,FQMEKIEHNYENMNHFTVNLNREE [G9N],3.26
12,FQMEKIEHTYENMNHFTVNLNREE [G9T],3.07
13,FQMEKIEHMYENMNHFTVNLNREE [G9M],2.45
14,FQMEKIEHPYENMNHFTVNLNREE [G9P],2.93
15,FQMEKIEHCYENMNHFTVNLNREE [G9C],2.33
16,FQMEKIEHGYENMNHFSVNLNREE [T17S],3.03
17,FQMEKIEHGYENMNHFHVNLNREE [T17H],3.4
18,FQMEKIEHGYENMNHFVVNLNREE [T17V],2.25
19,FQMEKIEHGYENMNHFQVNLNREE [T17Q],3.75
20,FQMEKIEHGYENMNHFKVNLNREE [T17K],3.31
21,FQMEKIEHGYENMNHFNVNLNREE [T17N],3.76
22,FQMEKIEHGYENMNHFAVNLNREE [T17A],2.59
23,FQMEKIEHGYENMNHFIVNLNREE [T17I],2.06
24,FQMEKIEHGYENMNHFTVLLNREE [N19L],2.22

row,Variant,protein stability index
1,FQMEKIEHGYENMNHFTVWLNREE [N19W],2.09
2,FQMEKIEHGYENMNHFTVVLNREE [N19V],2.29
3,FQMEKIEHGYENMNHFTVPLNREE [N19P],3.4
4,FQMEKIEHGYENMNHFTVILNREE [N19I],2.05
5,FQMEKIEHGYENMNHFTVNLNGEE [R22G],2.67
6,FQMEKIEHGYENMNHFTVNLNCEE [R22C],3.09
7,FQMEKIEHGYENMNHFTVNLNFEE [R22F],1.98
8,FQMEKIEHGYENMNHFTVNLNHEE [R22H],2.64
9,FQMEKIEHGYENMNHFTVNLNKEE [R22K],3.75
10,FQMEKIEHGYENMNHFTVNLNRME [E23M],2.27
11,FQMEKIEHGYENMNHFTVNLNRVE [E23V],2.62
12,FQMEKIEHGYENMNHFTVNLNRYE [E23Y],2.23
13,FQMEKIEHGYENMNHFTVNLNRGE [E23G],2.28
14,FQMEKIEHGYENMNHFTVNLNRAE [E23A],1.77
15,FQMEKIEHGIENMNHFTVNLNREE [Y10I],3.14
16,FQMEKIEHGDENMNHFTVNLNREE [Y10D],3.31
17,FQMEKIEHGKENMNHFTVNLNREE [Y10K],2.82
18,FQMEKIEHGHENMNHFTVNLNREE [Y10H],2.94
19,FQMEKIEHGTENMNHFTVNLNREE [Y10T],3.1
20,FQMEKIEHGRENMNHFTVNLNREE [Y10R],3.18
21,FQMEKIEHGQENMNHFTVNLNREE [Y10Q],3.37
22,FQMEKIEHGLENMNHFTVNLNREE [Y10L],3.08
